According to article PMC8406172, “Mechanism of DNA Interaction and Translocation by the Replicase of a Circular Rep-Encoding Single-Stranded DNA Virus” (mBio, 2021):

Experiments:
[1] = tested on: Nc1nc2c(ncn2[C@@H]2O[C@H](COP(=O)(O)OP(=O)(O)OP(=O)(O)O)[C@@H](O)[C@H]2O)c(=O)[nH]1; assay: purified protein; conditions: 66 nM Rep, room temperature; copurifying DNA present
Description: (§1) NTP/NADH-coupled spectrophotometric assay (pyruvate kinase / lactate dehydrogenase) on PCV2 Rep (replicase)

[2] = tested on: O=c1ccn([C@@H]2O[C@H](COP(=O)(O)OP(=O)(O)OP(=O)(O)O)[C@@H](O)[C@H]2O)c(=O)[nH]1; assay: purified protein; conditions: 66 nM Rep, room temperature; copurifying DNA present
Description: as §1

[3] = tested on: Nc1ccn([C@@H]2O[C@H](COP(=O)(O)OP(=O)(O)OP(=O)(O)O)[C@@H](O)[C@H]2O)c(=O)n1; assay: purified protein; conditions: 66 nM Rep, room temperature; copurifying DNA present
Description: as §1

[4] = target: porcine circovirus 2 (PCV2) replicase (Rep) (porcine circovirus 2 (PCV2b)); assay: cryo-EM structure

Substance: PCV2 Rep (replicase) (Porcine circovirus 2)
- K0.5 [1]: 577.2 µM
- kcat [1]: 0.56 s⁻¹
- K0.5 [2]: 78.5 µM
- kcat [2]: 0.24 s⁻¹
- K0.5 [3]: 284.4 µM
- kcat [3]: 0.16 s⁻¹

Substance: porcine circovirus 2 (PCV2) replicase (Rep) (enzyme)
- stoichiometry N [4]: 6
